The values that follow come from article PMC6429369, “Characterization of Stackebrandtia nassauensis GH 20 Beta-Hexosaminidase, a Versatile Biocatalyst for Chitobiose Degradation” (International Journal of Molecular Sciences, 2019).

Substrate in data set [1]: CC(=O)N[C@H]1[C@H](Oc2ccc([N+](=O)[O-])cc2)O[C@H](CO)[C@H](O)[C@@H]1O
The experiment in a line: purified protein. Format: biochemical, Stackebrandtia nassauensis. As to conditions: 50 mM phosphate-citric acid buffer pH 6.0, 37 °C, substrate 0.01-10 mM.

Substrate in data set [2]: CC(=O)N[C@H]1[C@H](Oc2ccc([N+](=O)[O-])cc2)O[C@H](CO)[C@@H](O)[C@@H]1O
In words: purified protein. The class given is biochemical, Stackebrandtia nassauensis. The note with it: 50 mM phosphate-citric acid buffer pH 6.0, 37 °C, substrate 0.01-10 mM.

B1: SnHex (Stackebrandtia nassauensis GH20 beta-N-acetylhexosaminidase) (Stackebrandtia nassauensis DSM 44728) (protein)
chain: VADPSHAKAATPSTIPALGEWTAASGTYTYSESSRLVVDPDHADELTDEAQTAAADLAALTGTEPEVVTGEPETGDVSLALGGGEPLGAEGYSLDVGDTFAITANADAGAFYGTRTLLQLVKQDKQIPAGTATDVPKKPERGLMVDVGRKYMSVEWLKKHIKDLSYAKLNYFHLHLSDTFGFRLESETHPEVTSEDHYTKAEIRELVDLAAKYHVTLVPEIDVPGHVNAMLAQHPELQLEDQSGNKDPYFLDLSNPDAYTLVEDLIKEYLPLFPGPYWHIGADEYVGDYGKYPQLEAYAKEHYGPDAVGKDAYYGFINWANEIVRDGGKTTRMWNDGIKEGDGTIAPEANIVVDYWSTHGIDPQKLLDRGHTVMNASWTPTYYVLGGTDIDRRWLYEDWNPDLFEKTLTIDDPKRNLGSKIHVWCDHPDAQTEDQITEGIRLPLRGLAQQTWGSPKLVEGYDDFVAIDDAIGRAPGFSSL
notes: full ORF, 1578 bp, 526 residues, about 58 kDa; pET-30a in E. coli BL21(DE3) lacZ-; Ni-NTA and anion exchange; N-terminal His/thrombin/S-tag/enterokinase by cloning (text elsewhere says C-terminal His6), tags kept; primers translate to N-term VADPSH (after ATG), C-term GFSSL-stop
Consider B1, for which, in “purified protein [1]”, the Km (usually the substrate concentration at which the rate is half of its maximum) is 3290 ± 320 µM; the Vmax (commonly the top rate of the reaction or transport when substrate is in excess) was 44 µM/min/mg; the kcat – broadly, the maximal rate divided by the concentration of active sites – stood at 0.712 ± 0.0477 s⁻¹; the kcat/Km (as a rule, the turnover number divided by the Michaelis constant) was 217 ± 38.3 M⁻¹ s⁻¹. Also, in the data set “purified protein [2]”, the Km came out at 2470 ± 50 µM, the Vmax is 57 µM/min/mg, the kcat came out at 0.917 ± 0.0615 s⁻¹ and the kcat/Km was 372 ± 33.3 M⁻¹ s⁻¹.
